We go through two molecules from paper PMC11100570 (Science Advances, 2024).

For assay [1], the target named is Munc13-1 MUN domain (residues 933 to 1407, EF, 1453 to 1531) (rat, UniProt Q62768 933-1407; Q62768 1453-1531). As to the kind of experiment: ITC. (ITC needs no label: the signal is the heat of the interaction.)
In a further assay the target is MUN W1165A (rat, UniProt Q62768 933-1407; Q62768 1453-1531, W1165A). Kind of assay: pull-down.

B1: GST-Doc2B FL (full-length Doc2B, residues 1 to 412) (natural protein, mouse, UniProt P70169 1-412, looked up)
chain: MTLRRRGEKATISIQEHMAIDVCPGPIRPIKQISDYFPRFPRGLPPTAAPRAPAPPDAPARSPAASASPRSPSDGARDDDEDVDQLFGAYGASPGPSPGPSPARPPAKPPEDEPDVDGYESDDCTALGTLDFSLLYDQENNALHCTISKAKGLKPMDHNGLADPYVKLHLLPGASKANKLRTKTLRNTLNPSWNETLTYYGITDEDMVRKTLRISVCDEDKFRHNEFIGETRVPLKKLKPNHTKTFSICLEKQLPVDKAEDKSLEERGRILISLKYSSQKQGLLVGIVRCAHLAAMDANGYSDPYVKTYLKPDVDKKSKHKTAVKKKTLNPEFNEEFCYEIKHGDLAKKTLEVTVWDYDIGKSNDFIGGVVLGINAKGERLKHWFDCLKNKDKRIERWHTLTNELPGAVLSD
As usually defined, the stoichiometry N is the number of molecules, sites or subunits per partner or assembly. Consider B1, for which, in assay [1], the “fold change of the dissociation constant against Doc2B (13 to 37)” value amounted to 10 fold and the “stoichiometry N” value is 1. Moreover, in the assay with MUN W1165A, the binding result was “binds”.

B2: GST-Doc2B 13 to 80 (Mid-L) (domain or fragment, mouse, UniProt P70169 13-80, looked up)
chain: SIQEHMAIDVCPGPIRPIKQISDYFPRFPRGLPPTAAPRAPAPPDAPARSPAASASPRSPSDGARDDD
Take B2: the “fold change of the dissociation constant against Doc2B (13 to 37)” value in assay [1] was determined as 10 fold.
